# Assay results reported in patent publication US20130116195A1, “Binding ligand linked drug delivery conjugates of tubulysins” (priority 2009, published 2013).
# Entries after “also recorded” stand apart in the source; their conditions may differ.
# Experiments:
# [1] = test system: subcutaneous KB tumors; experiment: KB tumor assay, inhibition of tumor growth in mice; type: in vivo, nu/nu mice; details: FIG. 3A; 0.5, 0.75, 1 μmol/kg; tolerable and highly toxic dose levels
# Procedure: METHOD: Inhibition of Tumor Growth in Mice. Four to seven week-old mice (Balb/c or nu/nu strains) were purchased from Harlan Sprague Dawley, Inc. (Indianapolis, Ind.). Normal rodent chow contains a high concentration of folic acid (6 mg/kg chow); accordingly, mice used were maintained on the folate-free diet (Harlan diet #TD00434) for 1 week before tumor implantation to achieve serum folate concentrations close to the range of normal human serum. For tumor cell inoculation, 1×10^6 M109 cells (Balb/c strain) or 1×10^6 KB cells (nu/nu strain) in 100 μL were injected in the subcutis of the dorsal medial area. Tumors were measured in two perpendicular directions every 2-3 days using a caliper, and their volumes were calculated as 0.5×L×W^2, where L=measurement of longest axis in mm and W=measurement of axis perpendicular to L in mm. […]
# METHOD: General KB Tumor Assay. The anti-tumor activity of the compounds described herein, when administered intravenously (i.v.) to tumor-bearing animals, was evaluated in nu/nu mice bearing subcutaneous KB tumors. […] Tumor growth was measured using calipers at 2-day or 3-day intervals in each treatment group. Tumor volumes were calculated using the equation V=a×b^2/2, where “a” is the length of the tumor and “b” is the width expressed in millimeters.
# METHOD: Additional In vivo antitumor method. […] Survival of animals was monitored daily. […]
# [2] = Toxicity as measured by weight loss; type: in vivo, mice; details: for tolerability (percent weight change): FIG. 6, 3 μmol/kg TIW, female mice
# Procedure: METHOD: Additional In vivo antitumor method. Four to six week-old female nu/nu mice (Charles River, Wilmington, Mass.) were maintained on a standard 12 h light-dark cycle and fed ad libitum with folate-deficient chow (Harlan diet #TD00434, Harlan Teklad, Madison, Wis.) for the duration of the experiment. KB cells (1×10^6 per nu/nu mouse) in 100 μL were injected in the subcutis of the dorsal medial area. Mice were divided into groups of five, and test articles were freshly prepared and injected through the lateral tail vein under sterile conditions in a volume of 200 μL of phosphate-buffered saline (PBS). Intravenous (i.v.) treatments were typically initiated on approximately 9 post-tumor cell implantation when the KB tumors were approximately 100-200 mm^3 in volume. The mice in the control groups received no treatment. Growth of each s.c. tumor was followed by measuring the tumor three times per week during treatment and twice per week thereafter until a volume of 1500 mm^3 was reached. Tumors were measured in two perpendicular directions using Vernier calipers, and their volumes were calculated as 0.5×L×W^2, where L=measurement of longest axis in mm and W=measurement of axis perpendicular to L in mm. As a general measure of toxicity, changes in body weights were determined on the same schedule as tumor volume measurements. Survival of animals was monitored daily. Animals that were moribund (or unable to reach food or water) were euthanized by CO2 asphyxiation. All in vivo studies were performed in accordance with the American Accreditation Association of Laboratory Animal Care guidelines.
# METHOD: Toxicity as Measured by Weight Loss. The percentage weight change of the mice was determined in mice (5 mice/group) on selected days post-tumor inoculation (PTI), and graphed.
# [3] = Serum binding (30K NMWL filtration/HPLC-UV), mouse serum; type: in vitro ADME; details: 50 μM test article concentration in serum, n = 3, read-out: Mouse Serum % Bound (converted)
# Procedure: (§1) METHOD: Serum binding against different species. Compounds are tested with 30K NMWL, subjected to Microcon filtration (10,000 g for 30 minutes), and compounds are detected by HPLC. […] There was two times the amount of free EC0531 in serum compared to EC0305.
# [4] = Serum binding (30K NMWL filtration/HPLC-UV), human serum; type: in vitro ADME; details: for fraction unbound: human, 50 μM test article concentration in serum, n = 3, read-out: Human Serum % Bound (converted)
# Procedure: as §1
# [5] = test system: folate receptor-positive KB cells; experiment: Inhibition of Cellular DNA Synthesis (3H-thymidine incorporation cytotoxicity assay); type: cell-based; details: 2 hour pulse and 72 hour chase
# Procedure: METHOD: Inhibition of Cellular DNA Synthesis. The compounds described herein were evaluated using an in vitro cytotoxicity assay that predicts the ability of the drug to inhibit the growth of folate receptor-positive KB cells. The compounds were comprised of folate linked to a respective chemotherapeutic drug, as prepared according to the protocols described herein. The KB cells were exposed for up to 7 h at 37° C. to the indicated concentrations of folate-drug conjugate in the absence or presence of at least a 100-fold excess of folic acid. The cells were then rinsed once with fresh culture medium and incubated in fresh culture medium for 72 hours at 37° C. Cell viability was assessed using a ^3H-thymidine incorporation assay. For compounds described herein, dose-dependent cytotoxicity was generally measurable, and in most cases, the IC50 values (concentration of drug conjugate required to reduce ^3H-thymidine incorporation into newly synthesized DNA by 50%) were in the low nanomolar range.
# METHOD: In vitro test against the various cancer cell lines. Cells are heavily seeded in 24-well Falcon plates and allowed to form nearly confluent monolayers overnight. Thirty minutes prior to the addition of the test compound, spent medium is aspirated from all wells and replaced with fresh folate-deficient RPMI medium (FFRPMI). A subset of wells are designated to receive media containing 100 μM folic acid. The cells in the designated wells are used to determine the targeting specificity. […] Following one rinse with 1 mL of fresh FFRPMI containing 10% heat-inactivated fetal calf serum, each well receives 1 mL of medium containing increasing concentrations of test compound (4 wells per sample) in the presence or absence of 100 μM free folic acid as indicated. Treated cells are pulsed for 2 h at 37° C., rinsed 4 times with 0.5 mL of media, and then chased in 1 mL of fresh medium up to 70 h. Spent medium is aspirated from all wells and replaced with fresh medium containing 5 μCi/mL ^3H-thymidine. Following a further 2 h 37° C. incubation, cells are washed 3 times with 0.5 mL of PBS and then treated with 0.5 mL of ice-cold 5% trichloroacetic acid per well. After 15 min, the trichloroacetic acid is aspirated and the cell material solubilized by the addition of 0.5 mL of 0.25 N sodium hydroxide for 15 min. A 450 μL aliquot of each solubilized sample is transferred to a scintillation vial containing 3 mL of Ecolume scintillation cocktail and then counted in a liquid scintillation counter. Final tabulated results are expressed as the percentage of ^3H-thymidine incorporation relative to untreated controls.
compound,measurement,setting,value
"CCCC(=O)OCN(C(=O)[C@@H](NC(=O)[C@H]1CCCCN1C)C(C)CC)[C@H](C[C@@H](OC(C)=O)c1nc(C(=O)N[C@@H](Cc2ccc(O)cc2)C[C@H](C)C(=O)O)cs1)C(C)C (stereo partly drawn) [tubulysin B, reference compound]",responses (animals),[1],0/5
same,toxicity (percent body weight change),"[2]; mouse, in vivo",excessive toxicity
CCCC(=O)OCN(C(=O)[C@@H](NC(=O)[C@H]1CCCCN1C)C(C)CC)[C@H](C[C@@H](OC(C)=O)c1nc(C(=O)N[C@@H](Cc2ccc(O)cc2)C[C@H](C)C(=O)NNC(=O)OCCSSC[C@H](NC(=O)[C@H](CC(=O)O)NC(=O)[C@H](CCCNC(=N)N)NC(=O)[C@H](CC(=O)O)NC(=O)CC[C@H](NC(=O)c2ccc(NCc3cnc4nc(N)[nH]c(=O)c4n3)cc2)C(=O)O)C(=O)O)cs1)C(C)C (stereo partly drawn) [EC0305],tolerability (percent weight change),[2],not well tolerated; also recorded: exceeded MTD
same,fraction unbound,[3],0.362
same,fraction unbound,[4],0.207
CCC(C)[C@H](NC(=O)[C@H]1CCCCN1C)C(=O)N(COC(=O)CC(C)C)[C@H](C[C@@H](OC(C)=O)c1nc(C(=O)N[C@@H](Cc2ccc(O)cc2)C[C@H](C)C(=O)NNC(=O)OCCSSC[C@H](NC(=O)[C@H](CC(=O)O)NC(=O)[C@H](CCCNC(=N)N)NC(=O)[C@H](CC(=O)O)NC(=O)CC[C@H](NC(=O)c2ccc(NCc3cnc4nc(N)[nH]c(=O)c4n3)cc2)C(=O)O)C(=O)O)cs1)C(C)C (stereo partly drawn) [EC0510],tolerability (percent weight change),[2],exceeded MTD
same,tolerability (percent weight change),[2]; listed as EC0310,not well tolerated
CCCC(=O)OCN(C(=O)[C@@H](NC(=O)[C@H]1CCCCN1C)C(C)CC)[C@H](C[C@@H](OC(C)=O)c1nc(C(=O)N[C@@H](Cc2ccc(O)cc2)C[C@H](C)C(=O)NNC(=O)OCCSSC[C@H](NC(=O)[C@H](CCC(=O)NC[C@H](O)[C@@H](O)[C@H](O)[C@H](O)CO)NC(=O)[C@H](CCC(=O)O)NC(=O)[C@H](CCC(=O)NC[C@H](O)[C@@H](O)[C@H](O)[C@H](O)CO)NC(=O)[C@H](CCC(=O)O)NC(=O)[C@H](CCC(=O)NC[C@H](O)[C@@H](O)[C@H](O)[C@H](O)CO)NC(=O)CC[C@H](NC(=O)c2ccc(NCc3cnc4nc(N)[nH]c(=O)c4n3)cc2)C(=O)O)C(=O)O)cs1)C(C)C (stereo partly drawn) [EC0531],cytotoxic activity in the presence of an excess of a folate-fluorescein conjugate,[5],blocked
same,cytotoxic activity in the presence of an excess of folic acid,[5],blocked
same,weight loss or major organ tissue degeneration,"[2]; FIG. 4B, 1, 2, 3 μmol/kg TIW two weeks",apparent absence of weight loss or major organ tissue degeneration
same,tolerability (percent weight change),[2],well tolerated; also recorded: safe and tolerable
same,fraction unbound,[3],0.503
same,fraction unbound,[4],0.38
same,amount of free conjugate in serum compared to EC0305,[4]; serum binding assay,two times
CCC(C)[C@H](NC(=O)[C@H]1CCCCN1C)C(=O)N(COC(=O)CC(C)C)[C@H](C[C@@H](OC(C)=O)c1nc(C(=O)N[C@@H](Cc2ccc(O)cc2)C[C@H](C)C(=O)NNC(=O)OCCSSC[C@H](NC(=O)[C@H](CCC(=O)NC[C@H](O)[C@@H](O)[C@H](O)[C@H](O)CO)NC(=O)[C@H](CCC(=O)O)NC(=O)[C@H](CCC(=O)NC[C@H](O)[C@@H](O)[C@H](O)[C@H](O)CO)NC(=O)[C@H](CCC(=O)O)NC(=O)[C@H](CCC(=O)NC[C@H](O)[C@@H](O)[C@H](O)[C@H](O)CO)NC(=O)CC[C@H](NC(=O)c2ccc(NCc3cnc4nc(N)[nH]c(=O)c4n3)cc2)C(=O)O)C(=O)O)cs1)C(C)C (stereo partly drawn) [EC0543],cytotoxic activity in the presence of an excess of a folate-fluorescein conjugate,[5],blocked
same,observed weight loss,"[2]; FIG. 9, 3 μmol/kg, nu/nu mice with KB tumors",15 to 18%
CCCC(=O)OCN(C(=O)[C@@H](NC(=O)[C@H]1CCCCN1C)C(C)CC)[C@H](C[C@@H](OC(C)=O)c1nc(C(=O)N[C@@H](Cc2ccc(O)cc2)C[C@H](C)C(=O)NNC(=O)OCCSSC[C@H](NC(=O)[C@H](CCC(=O)NC[C@H](O)[C@@H](O)[C@H](O)[C@H](O)CO)NC(=O)[C@H](CCC(=O)O)NC(=O)[C@H](CCC(=O)NC[C@H](O)[C@@H](O)[C@H](O)[C@H](O)CO)NC(=O)[C@H](CCC(=O)NC[C@H](O)[C@@H](O)[C@H](O)[C@H](O)CO)NC(=O)[C@H](CCC(=O)O)NC(=O)[C@H](CCC(=O)NC[C@H](O)[C@@H](O)[C@H](O)[C@H](O)CO)NC(=O)CC[C@H](NC(=O)c2ccc(NCc3cnc4nc(N)[nH]c(=O)c4n3)cc2)C(=O)O)C(=O)O)cs1)C(C)C (stereo partly drawn) [EC0530],cytotoxic activity in the presence of an excess of a folate-fluorescein conjugate,[5],blocked
CCC(C)[C@H](NC(=O)[C@H]1CCCCN1C)C(=O)N(COC(=O)CC(C)C)[C@H](C[C@@H](OC(C)=O)c1nc(C(=O)N[C@@H](Cc2ccc(O)cc2)C[C@H](C)C(=O)NNC(=O)OCCSSC[C@H](NC(=O)[C@H](CCC(=O)NC[C@H](O)[C@@H](O)[C@H](O)[C@H](O)CO)NC(=O)[C@H](CCC(=O)O)NC(=O)[C@H](CCC(=O)NC[C@H](O)[C@@H](O)[C@H](O)[C@H](O)CO)NC(=O)[C@H](CCC(=O)NC[C@H](O)[C@@H](O)[C@H](O)[C@H](O)CO)NC(=O)[C@H](CCC(=O)O)NC(=O)[C@H](CCC(=O)NC[C@H](O)[C@@H](O)[C@H](O)[C@H](O)CO)NC(=O)CC[C@H](NC(=O)c2ccc(NCc3cnc4nc(N)[nH]c(=O)c4n3)cc2)C(=O)O)C(=O)O)cs1)C(C)C (stereo partly drawn) [EC0533],cytotoxic activity in the presence of an excess of a folate-fluorescein conjugate,[5],blocked
